Test results: US8367615B2, “Stimulation of neuron regeneration by secretory leukocyte protease inhibitor” (Research Foundation of City University of New York, priority 2006, dated 2013)

Assays:
DRG neurons = assay: Microarray analysis of gene expression in DRG neurons; type: cell-based; settings: DRG neurons that received dbcAMP
Source text: The effects of cAMP were the result of its ability to induce gene transcription.

older neurons = settings: cAMP levels elevated by treatment, previously established (WO 01/85981); cited from earlier work
[1] = test system: transected nerve fibers in the spinal cord; settings: in vivo injection; previously established (WO 01/85981); cited from earlier work
[2] = test system: dorsal root ganglia (DRG) neurons; assay: Neurite outgrowth of DRG neurons on MAG-expressing CHO cell monolayers; type: cell-based, rat
Description: FIGS. 1A and 1B are a panel of four photographs and a bar graph, respectively, showing that SLPI reverses inhibition by MAG for dorsal root ganglia (“DRG”) neurons. DRG neurons from post-natal day 6 rats were treated with 2, 5, or 10 μg/ml SLPI, plated onto monolayers of either control or MAG-expressing Chinese hamster ovary (“CHO”) cells, and incubated for 16 hours. Neurons were stained for βIII tubulin and neurite length was quantified using the METAMORPH image analysis software. Data are presented ±SEM.

cortical neurons = assay: Neurite outgrowth of cortical neurons on central nervous system myelin; type: cell-based; settings: 5 and 10 μg/ml, post-natal day 1 rat cortical neurons on CNS myelin
Description: FIGS. 2A and 2B are a panel of four photographs and a bar graph, respectively, showing that SLPI enhances neurite outgrowth on myelin for cortical neurons. Cortical neurons from post-natal day 1 rats were treated with 1 mM dibutyrl cAMP (dbcAMP) and 5 or 10 μg/ml SLPI, and plated onto 8-well chamber slides coated with central nervous system myelin (1 μg per well). Neurons were incubated for 24 hours and immunostained for βIII tubulin. The bar graph depicts average neurite length ±SEM.
Unlike DRG neurons, cortical neurons were inhibited by MAG and myelin at post-natal day 1.

adult DRG neurons = assay: In vivo intrathecal delivery, then neurite outgrowth of adult DRG neurons on MAG-expressing CHO cells; design: species or system rat; settings: 2 and 5 μg/kg/hr intrathecal for 24 hours in adult rats, neurons plated on MAG-expressing CHO cells
Description: FIGS. 3A and 3B are a panel of four photographs and a bar graph, respectively, showing that in vivo delivery of SLPI overcomes MAG inhibition for adult DRG neurons. DRG neurons from adult rats that received infusion of 1, 2, or 5 μg/kg/hr SLPI into the spinal cord for 24 hours were plated onto control or MAG-expressing CHO cells. Neurons were incubated for 16 hours and stained for βIII tubulin. The bar graph depicts average neurite length ±SEM.
SLPI was delivered to the spinal cord by a pump.

optic nerve = assay: Optic nerve crush, GAP-43 staining of regenerating axons; type: in vivo, rat; settings: single intravitreal injection of 10 micrograms after optic nerve crush; two weeks; adult male Fischer rats
Description: SLPI's ability to promote axonal regeneration in vivo in the optic nerve was investigated. Adult male Fischer rats (200-300 g, Charles River Laboratories) were anesthetized with isofluorane and placed in a stereotaxic frame. Optic nerve crush was performed as follows. The right optic nerve was exposed and the meninges were removed. The nerve was then crushed for 10 seconds with fine forceps at a distance of 2 mm behind the eye. Special care was taken to avoid injury to the opthalmic artery. After closing the incision, the animal received a single intravitreal injection of either 5 microliters sterile saline or 10 micrograms of recombinant human SLPI (R&D Systems; 2 micrograms/microliter in 5 microliters sterile saline) in the right eye. After a two-week post-surgical survival period, the animals were sacrificed by transcardial perfusion with 4% paraformaldehyde and the optic nerves were dissected. Nerves were sectioned at a thickness of 20 microns and thaw-mounted onto gelatin-coated slides. Sections were immunostained for GAP-43 using a polyclonal sheep anti-GAP-43 antibody diluted 1:1000 in a solution of 5% rabbit serum, 2% BSA, and 0.1% Tween in Tris-buffered saline (TBS). […] Slides were coverslipped with Permafluor mounting medium (Thermo) and viewed under fluorescence. […]

[3] = Tolerability on administration to live animals; type: in vivo

Row | Molecule | expression of SLPI (DRG neurons) | inhibition by MAG and myelin of nerve fiber growth (older neurons) | regeneration of transected nerve fibers in the spinal cord [1] | neurite outgrowth on MAG, most effective concentrations ([2]; 5 and 10 μg/ml, post-natal day 6 rat DRG neurons on MAG-expressing CHO cells) | neurite outgrowth on MAG ([2]; post-natal day 6 rat DRG neurons treated with 2, 5 or 10 μg/ml, on MAG-expressing CHO cells, 16 hours) | neurite outgrowth on myelin, effect compared with 1 mM dbcAMP (cortical neurons) | neurite outgrowth on myelin (cortical neurons; 24 hours) | MAG inhibition of DRG neurons after intrathecal delivery (adult DRG neurons) | neurite outgrowth after intrathecal delivery (adult DRG neurons; 16 hours) | GAP-43 positive axons in the crushed optic nerve (optic nerve) | axons extending beyond the lesion site (optic nerve) | toxicity when administered to live animals [3]
1 | CCCC(=O)Nc1ncnc2c1ncn2[C@@H]1O[C@@H]2COP(=O)(O)O[C@H]2[C@H]1OC(=O)CCC [dbcAMP, dibutyrl cAMP] | greatly increased | inhibition was reversed | led to regeneration |  |  |  |  |  |  |  |  | 
2 | secretory leukocyte protease inhibitor (protein, UniProt P03973 26-132, looked up) Antileukoproteinase: SGKSFKAGVCPPKKSAQCLRYKKPECQSDWQCPGKKRCCPDTCGIKCLDPVDTPNPTRRKPGKCPVTYGQCLMLNPPNFCEMDGQCKRDLKCCMGMCGKSCVSPVKA |  |  |  | most extensive growth | significantly increased | equivalent to that seen with dibutyryl AMP (dbcAMP) | significantly increased | blocks MAG inhibition | significant increases | numerous GAP-43 positive axons | several of them extend beyond the lesion site | non-toxic
